Numbering of substitutions follows the chain as printed. Where two headings read alike, the source gives them in different places.

From patent US20260167699A1 (Chugai, published 2026) come the findings set out here.

For assay [1], the target named is T1, FcγRIIIa(V) extracellular domain with C-terminal His tag (human, UniProt P08637 17-208).
T1 construct: extracellular domain; polymorphic form V158; also called FcγRIIIa V type
The assay can be described thus: SPR (Biacore), captured antibody, FcγR analyte, 1:1 Langmuir fit. For orientation: SPR reads the build-up and loss of mass on a sensor chip optically.
Protocol: (§1) The antibody of interest was analyzed for its interaction with FcγR using a BiaCore™ T100, BiaCore™ A100, or BiaCore™ 4000 surface plasmon resonance system (GE Healthcare Japan Corp.). The running buffer used was HBS-EP+ (GE Healthcare Japan Corp.). The assay temperature was set to 25° C. The sensor chips used were: a chip prepared by immobilizing antigenic peptides onto Series S Sensor Chip CM5 (GE Healthcare Japan Corp.) by the amine coupling method; a chip prepared by immobilizing antigenic peptides biotinylated in advance onto Series S Sensor Chip SA (certified) (GE Healthcare Japan Corp.) through their interaction; a chip prepared by immobilizing protein L (ACTIGEN, BioVision, Inc.) onto Series S Sensor Chip CM5 (GE Healthcare Japan Corp.); and a chip prepared by immobilizing protein A/G (Thermo Fisher Scientific K.K.) onto Series S Sensor Chip CM5 (GE Healthcare Japan Corp.). The antibody of interest was captured onto any of these chips and allowed to interact with FcγR diluted with a running buffer. The antibody captured on the chip was washed off through the reaction of 10 mM glycine-HCl (pH 1.5) to regenerate the chip, which was repetitively used.

Assay [2] addresses T2, FcγRIIb extracellular domain with C-terminal His tag (human, UniProt P31994 43-217).
T2 construct: extracellular domain
T2 sequence: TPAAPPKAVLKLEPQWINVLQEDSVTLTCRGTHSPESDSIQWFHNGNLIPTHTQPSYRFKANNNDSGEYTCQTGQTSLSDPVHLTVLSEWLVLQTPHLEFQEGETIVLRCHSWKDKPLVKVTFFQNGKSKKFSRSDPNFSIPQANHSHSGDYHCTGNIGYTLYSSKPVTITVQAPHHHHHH
Described as above.
Protocol: as §1

For assay [3], the target named is T3, FcγRIa extracellular domain with C-terminal His tag (human, UniProt P12314 16-292).
T3 construct: extracellular domain
The assay is described as above.
Protocol: as §1

The target in assay [4] is T4, FcγRIIIa(F) extracellular domain with C-terminal His tag (human, UniProt P08637 17-208).
T4 construct: extracellular domain; polymorphic form F158; also called FcγRIIIa F type
The assay is described as above.
Protocol: as §1

For assay [5], the target named is T5, FcγRIIa(R) extracellular domain with C-terminal His tag (human, UniProt P12318 34-217).
T5 construct: extracellular domain; polymorphic form R131; also called FcγRIIa R type
T5 sequence: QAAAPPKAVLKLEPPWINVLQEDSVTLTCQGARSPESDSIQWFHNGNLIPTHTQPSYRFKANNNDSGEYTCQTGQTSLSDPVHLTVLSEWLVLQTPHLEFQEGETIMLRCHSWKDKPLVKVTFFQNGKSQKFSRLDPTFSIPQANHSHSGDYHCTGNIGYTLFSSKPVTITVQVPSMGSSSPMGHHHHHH
Described as above.
Protocol: as §1

The target of assay [6] is T6, FcγRIIa(H) extracellular domain with C-terminal His tag (human, UniProt P12318 34-217).
T6 construct: extracellular domain; polymorphic form H131; also called FcγRIIa H type
T6 sequence: T5 sequence with R134H
Described as above.
Protocol: as §1

In assay [7] the target is T1, FcγRIIIa(V) extracellular domain with …. Described as above. This is another data set of the same source.
Protocol: as §1
Assay [8] concerns the target T2, FcγRIIb extracellular domain with …. The description is as above. The source holds these as a separate data set.
Protocol: as §1
Assay [9] has as its target T3, FcγRIa extracellular domain with …. The assay is described as above. The source holds these as a separate data set.
Protocol: as §1
In assay [10] the target is T4, FcγRIIIa(F) extracellular domain with …. The assay is described as above. This is another data set of the same source.
Protocol: as §1
Assay [11] has as its target T5, FcγRIIa(R) extracellular domain with …. Described as above. This is another data set of the same source.
Protocol: as §1
Assay [12] deals with T6, FcγRIIa(H) extracellular domain with …. Described as above. This is another data set of the same source.
Protocol: as §1
Assay [13] has as its target T7, FcγRIIIa (human, UniProt P08637 17-208).
T7 construct: extracellular domain; also called 3a
The assay can be described thus: SPR (Biacore T100), antibody captured on protein L chip, FcγRIIIa as analyte, TBS(+), 25 C, 1:1 Langmuir fit.
T7 sequence (P08637 other isoform, or with tags, fused parts or gaps): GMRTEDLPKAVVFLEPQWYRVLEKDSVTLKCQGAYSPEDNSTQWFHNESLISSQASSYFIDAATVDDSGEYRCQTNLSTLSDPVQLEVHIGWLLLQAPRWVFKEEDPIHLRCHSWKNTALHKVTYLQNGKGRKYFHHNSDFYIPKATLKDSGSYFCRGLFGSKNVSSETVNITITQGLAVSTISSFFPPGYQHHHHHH
Protocol: Specifically, their interaction with FcγRIIIa was analyzed using BiaCore™ T100 surface plasmon resonance system (GE Healthcare Japan Corp.). The running buffer used was the TBS(+) solution used in the preceding paragraph. The assay temperature was set to 25° C. Protein L was immobilized onto Series S Sensor Chip CM4 (GE Healthcare Japan Corp.) by the amine coupling method to prepare a chip. Each antibody of interest was captured onto the protein L-immobilized chip and allowed to interact with FcγRIIIa diluted with a running buffer. The antibody captured on the chip was washed off through the reaction of 10 mM glycine-HCl (pH 1.5) to regenerate the chip, which was repetitively used.
Each antibody was evaluated for its binding activity against FcγRIIIa with binding activity against FcγRIIIa and dissociation constant for FcγRIIIa as main indexes. […] Specifically, a sensorgram obtained by assay using BiaCore™ surface plasmon resonance Evaluation Software was globally fit into the 1:1 Langmuir model to calculate an association rate constant ka (L/mol/s) and a dissociation rate constant kd (1/s). From these values, the dissociation constant KD (mol/L) was calculated.

A further assay has as its target T8, FcγRIIIaV (human, UniProt P08637 17-208).
T8 construct: extracellular domain
Nature of the assay: SPR (Biacore), antibody captured, FcγR as analyte, 1:1 Langmuir fit.

The target of a further assay is T9, FcγRIa (human, UniProt P12314 16-292).
T9 construct: extracellular domain; also called 1a
Nature of the assay: SPR, relative to GpH7-A5/GpH7-B3/GpL16-k0 =100.

For assay [14], the target named is T10, FcγRIIIa (human, UniProt P08637 17-208).
T10 construct: extracellular domain; also called 3a
Nature of the assay: SPR, relative to GpH7-A5/GpH7-B3/GpL16-k0 =100.

The next assay has as its target T11, FcγRIIa(H) (human, UniProt P12318 34-217).
T11 construct: extracellular domain; also called 2aH
T11 sequence: T5 sequence with R134H
The assay can be described thus: SPR, relative to GpH7-A5/GpH7-B3/GpL16-k0 =100.

The target in the next assay is T12, FcγRIIa(R) (human, UniProt P12318 34-217).
T12 construct: extracellular domain; also called 2aR
T12 sequence: T5 sequence
The assay can be described thus: SPR, relative to GpH7-A5/GpH7-B3/GpL16-k0 =100.

For another assay, the target named is T13, FcγRIIb (human, UniProt P31994 43-217).
T13 construct: extracellular domain; also called 2b
T13 sequence: T2 sequence
Nature of the assay: SPR, relative to GpH7-A5/GpH7-B3/GpL16-k0 =100.

T1 sequence (P08637 other isoform, or with tags, fused parts or gaps): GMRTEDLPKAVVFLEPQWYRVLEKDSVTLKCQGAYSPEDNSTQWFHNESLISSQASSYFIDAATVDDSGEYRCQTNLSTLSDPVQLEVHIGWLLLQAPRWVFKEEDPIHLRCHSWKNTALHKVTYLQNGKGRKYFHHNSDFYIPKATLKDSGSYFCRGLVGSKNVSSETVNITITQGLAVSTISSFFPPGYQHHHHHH
T3 sequence (P12314 other isoform, or with tags, fused parts or gaps): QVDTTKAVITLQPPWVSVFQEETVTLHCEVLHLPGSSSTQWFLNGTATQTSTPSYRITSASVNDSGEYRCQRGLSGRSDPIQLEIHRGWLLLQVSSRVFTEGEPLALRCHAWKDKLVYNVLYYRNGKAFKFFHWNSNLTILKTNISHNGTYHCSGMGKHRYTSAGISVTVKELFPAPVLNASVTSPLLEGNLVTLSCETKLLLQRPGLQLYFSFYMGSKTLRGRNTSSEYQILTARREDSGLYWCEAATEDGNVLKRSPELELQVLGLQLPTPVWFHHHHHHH
T9 sequence (P12314 other isoform, or with tags, fused parts or gaps): as above
Protocol for FcγRIIIaV: as §1

B1: H240-Kn033/H240-Hl033/L73-k0 (antibody, human IgG1, kappa)
heavy 1: not shown
heavy 2: not shown
light: DIQMTQSPSSLSASVGDRVTITCRASQDIHKYIAWYQQKPGQAPRLLIQYTSTLQPGVPSRFSGSGSGTDYTFTISSLQPEDIATYYCLQYEQLRTFGGGTKVEIKRTVAAPSVFIFPPSDEQLKSGTASVVCLLNNFYPREAKVQWKVDNALQSGNSQESVTEQDSKDSTYSLSSTLTLSKADYEKHKVYACEVTHQGLSSPVTKSFNRGEC
notes: anti-epiregulin IgG1, knobs-into-holes control; also called H240-Kn033/H240-HI033/L73-k0
In general, Kd refers to the equilibrium constant for the complex coming apart. High values mean weaker binding, low ones tighter binding. On to B1, for which the Kd came out at 390 nM in assay [1]; 4.1 µM in [2]; 0.25 nM in assay [3]; 2600 nM in assay [4]; 1000 nM in assay [5]; 930 nM in assay [6]. Also, the Kd came to 390 nM in assay [7]; 4.1 µM in [8]; 0.25 nM in assay [9]; 2600 nM in assay [10]; 1000 nM in [11]; 930 nM in [12].

B2: H240-G1dE/H240-G1dE/L73 (antibody, human IgG1, kappa)
heavy: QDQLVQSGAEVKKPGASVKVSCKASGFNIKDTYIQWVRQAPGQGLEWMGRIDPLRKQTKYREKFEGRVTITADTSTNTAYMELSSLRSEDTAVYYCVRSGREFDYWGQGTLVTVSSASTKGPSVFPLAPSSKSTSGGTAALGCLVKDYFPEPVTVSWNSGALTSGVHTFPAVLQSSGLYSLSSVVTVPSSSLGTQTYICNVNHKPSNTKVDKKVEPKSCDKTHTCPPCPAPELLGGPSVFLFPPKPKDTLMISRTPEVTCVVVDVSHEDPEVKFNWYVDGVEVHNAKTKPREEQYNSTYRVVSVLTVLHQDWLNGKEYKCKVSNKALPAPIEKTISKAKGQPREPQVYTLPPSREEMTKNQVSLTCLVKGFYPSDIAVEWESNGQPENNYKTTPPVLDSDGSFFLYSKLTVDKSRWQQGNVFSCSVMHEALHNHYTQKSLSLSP
light: B1 light
notes: anti-EREG antibody with constant regions derived from human natural IgG1; also called IgG1; naturally occurring IgG1
Regarding B2, the Kd in the assay with FcγRIIIa [13] turned out to be 290 nM; in the assay with FcγRIIIaV it was 340 nM.

B3: H240-Kn125-ma1/H240-Hl076/L73 (antibody, human IgG1, kappa)
heavy 1: QDQLVQSGAEVKKPGASVKVSCKASGFNIKDTYIQWVRQAPGQGLEWMGRIDPLRKQTKYREKFEGRVTITADTSTNTAYMELSSLRSEDTAVYYCVRSGREFDYWGQGTLVTVSSASTKGPSVFPLAPSSKSTSGGTAALGCLVKDYFPEPVTVSWNSGALTSGVHTFPAVLQSSGLYSLSSVVTVPSSSLGTQTYICNVNHKPSNTKVDKKVEPKSCDKTHTCPPCPAPELLGGPSVFLFPPKPKDTLMISRTPEVTCVVVDVSHEEPEVKFNWYVDGVEVHNAKTKPREEQYNSTYRVVSVLTVLHQDWLNGKEYKCKVSNDALPMPIEETISKAKGQPREPQVYTLPPSRCELTKNQVSLSCAVKGFYPSDIAVEWESNGQPENNYKTTPPVLDSDGSFFLVSKLTVDKSRWQQGNVFSCSVMHEALHNHYTQKSLSLSP
heavy 2: QDQLVQSGAEVKKPGASVKVSCKASGFNIKDTYIQWVRQAPGQGLEWMGRIDPLRKQTKYREKFEGRVTITADTSTNTAYMELSSLRSEDTAVYYCVRSGREFDYWGQGTLVTVSSASTKGPSVFPLAPSSKSTSGGTAALGCLVKDYFPEPVTVSWNSGALTSGVHTFPAVLQSSGLYSLSSVVTVPSSSLGTQTYICNVNHKPSNTKVDKKVEPKSCDKTHTCPPCPAPEYQWGPMVFLFPPKPKDTLMISRTPEVTCVVVDVSGCRGDCLEPEVKFNWYVDGVEVHNAKTKPREEQYNATYRVVSVLTVLHQDWLNGKEYKCKVSNKALPAPIEKTISKAKGQPREPQVCTLPPSRDELTKNQVSLWCLVKGFYPSDIAVEWESNGQPENNYKTTPPVLDSDGSFFLYSKLTVDKSRWQQGNVFSCSVMHEALHNHYTQKSLSLSP
light: B1 light
notes: heterodimerized anti-EREG antibody with the RGD peptide inserted in a loop region of the H240-Kn125 chain; also called H240-Kn125-ma1/H240-HI076/L73
As for B3, in the assay with FcγRIIIa [13], the Kd worked out at 160 nM.

B4: H240-Kn125/H240-Hl076/L73-k0 (antibody, human IgG1, kappa)
heavy 1: QDQLVQSGAEVKKPGASVKVSCKASGFNIKDTYIQWVRQAPGQGLEWMGRIDPLRKQTKYREKFEGRVTITADTSTNTAYMELSSLRSEDTAVYYCVRSGREFDYWGQGTLVTVSSASTKGPSVFPLAPSSKSTSGGTAALGCLVKDYFPEPVTVSWNSGALTSGVHTFPAVLQSSGLYSLSSVVTVPSSSLGTQTYICNVNHKPSNTKVDKKVEPKSCDKTHTCPPCPAPEYQWGPMVFLFPPKPKDTLMISRTPEVTCVVVDVSDEEPEVKFNWYVDGVEVHNAKTKPREEQYNATYRVVSVLTVLHQDWLNGKEYKCKVSNKALPAPIEKTISKAKGQPREPQVCTLPPSRDELTKNQVSLWCLVKGFYPSDIAVEWESNGQPENNYKTTPPVLDSDGSFFLYSKLTVDKSRWQQGNVFSCSVMHEALHNHYTQKSLSLSP
heavy 2: B3 heavy 1
light: B1 light
notes: heterodimerized anti-epiregulin IgG1
As for B4, the Kd is 0.37 nM in assay [7]; 4.2 µM in assay [8]; 0.24 nM in [9]; 1.2 nM in [10]; 380 nM in assay [11]; 190 nM in assay [12].

B5: GpH7-A5/GpH7-B3 variant A327_01G/GpL16-k0 (antibody, human IgG1, kappa)
heavy 1: not shown
heavy 2: not shown
light: DIVMTQSPLSLPVTPGEPASISCQASESLVHSNRNTYLHWYLQKPGQSPQLLIYKVSNRFSGVPDRFSGSGSGTDFTLKISRVEAEDVGVYYCSQNTHVPPTFGQGTKVEIERTVAAPSVFIFPPSDEQLKSGTASVVCLLNNFYPREAKVQWKVDNALQSGNSQESVTEQDSKDSTYSLSSTLTLSKADYEKHKVYACEVTHQGLSSPVTKSFNRGEC
notes: He Ab: heterodimerized IgG1, one H chain mutated
As to B5, in the assay with FcγRIa, the “He/Con 1a” value is 101%. Further, the “He/Con 3a” value with FcγRIIIa [14] amounted to 74.4%. In the assay with FcγRIIa(H), the “He/Con 2aH” value came to 115%. In addition, in the assay with FcγRIIa(R), the “He/Con 2aR” value was determined as 126%. The “He/Con 2b” value with FcγRIIb was found to be 144%.

B6: GpH7-A5/GpH7-B3 variant S324_05P/GpL16-k0 (antibody, human IgG1, kappa)
heavy 1: not shown
heavy 2: not shown
light: B5 light
notes: as for B5
With B6, in the assay with FcγRIa, the “He/Con 1a” value was found to be 97.8%. For the same molecule, in the assay with FcγRIIIa [14], the “He/Con 3a” value worked out at 72.3%. For the same molecule, the “He/Con 2aH” value in the assay with FcγRIIa(H) amounted to 57.8%. Further, the “He/Con 2aR” value with FcγRIIa(R) amounted to 94.6%. Further, the “He/Con 2b” value with FcγRIIb was 106%.

B7: GpH7-A5/GpH7-B3 variant L328_10E/GpL16-k0 (antibody, human IgG1, kappa)
heavy 1: not shown
heavy 2: not shown
light: B5 light
notes: as for B5
B7: the “He/Con 1a” value with FcγRIa came out at 104%. In the assay with FcγRIIIa [14], the “He/Con 3a” value amounted to 54.9%. For the same molecule, the “He/Con 2aH” value with FcγRIIa(H) came out at 65.7%. In addition, in the assay with FcγRIIa(R), the “He/Con 2aR” value was determined as 136%. Besides, the “He/Con 2b” value with FcγRIIb amounted to 215%.

B8: GpH7-A5/GpH7-B3 variant S324_20W/GpL16-k0 (antibody, human IgG1, kappa)
heavy 1: not shown
heavy 2: not shown
light: B5 light
notes: as for B5
As for B8, the “He/Con 1a” value with FcγRIa was found to be 108%. The “He/Con 3a” value in the assay with FcγRIIIa [14] was 111%. Besides, the “He/Con 2aH” value with FcγRIIa(H) was 114%. In the assay with FcγRIIa(R), the “He/Con 2aR” value was 106%. In addition, the “He/Con 2b” value with FcγRIIb is 114%.
